These results are taken from publication PMC9931213, “Structural basis for ATG9A recruitment to the ULK1 complex in mitophagy initiation” (Science Advances, 2023).

B1: MBP-FOLDON-ATG9A (692–839) [bacteriophage T4 | human] / TSF-ATG13^HORMA:GST-ATG101 complex, wild type [human] (parent complex)
chain 1: QLQSLVLSEYASTEMSLHALYMHQLHKQQAQAEPERHVWHRRESDESGESAPDEGGEGARAPQSIPRSASYPCAAPRPGAPETTALHGGFQRRYGGITDPGTVPRVPSHFSRLPLGGWAEDGQSASRHPEPVPEEGSEDELPPQVHKV
chain 2: METDLNSQDRKDLDKFIKFFALKTVQVIVQARLGEKICTRSSSSPTGSDWFNLAIKDIPEVTHEAKKALAGQLPAVGRSMCVEISLKTSEGDSMELEIWCLEMNEKCDKEIKVSYTVYNRLSLLLKSLLAITRVTPAYRLSRKQGHEYVILYRIYFGEVQLSGLGEGFQTVRVGTVGTPVGTITLSCAYRINLAFMS
chain 3: MNCRSEVLEVSVEGRQVEEAMLAVLHTVLLHRSTGKFHYKKEGTYSIGTVGTQDVDCDFIDFTYVRVSSEELDRALRKVVGEFKDALRNSGGDGLGQMSLEFYQKKKSRWPFSDECIPWEVWTVKVHVVALATEQERQICREKVGEKLCEKIINIVEVMNRHEYLPKMPTQSEVDNVFDTGLRDVQPYLYKISFQITDALGTSVTTTMRRLIKDTLAL

In this test the parent is B1. The experiment in a line: GST pull-down; n = 3; read off a plot.
On to chain 2 W50D, for which the ratio to parent was around 0.02.

In the case of chain 2 K18D, the ratio to parent was around 0.11.

As for chain 2 F16D, the ratio to parent was around 0.1.

For the variant chain 2 Y118D, the ratio to parent is around 0.03.

For chain 3 W110D, chain 3 F112D, the ratio to parent is around 0.8.

As to chain 2 Y115D, the ratio to parent was around 0.97.

As to chain 2 F19D, the ratio to parent is around 0.02.

Take chain 2 E83L: the ratio to parent was around 0.88.

For the variant chain 2 K15D, the ratio to parent was around 0.26.

Regarding chain 3 Y45D, the ratio to parent was around 0.02.
